B1: SLC19A2 (parent)
chain: FASLRPSEPFLTPYLLGPDKNLTE

For 94 variants, protein stability index results are on record in the supplement of paper PMC10567573.
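Note: lentivirally expressed fusions sorted by FACS into six bins by GFP to DsRed ratio, PSI derived from sequencing read proportions per bin multiplied by bin number.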

Variants of B1 are the subject of this series. In words: protein stability index of a GFP-peptide fusion (GPS, HEK-293T) (PSI 1-6); higher = more stable. The following applies: c terminus: a fixed tail appended.
Consider FESLRPSEPFLTPYLLGPDKNLTE [A2E], for which the protein stability index worked out at 3.63. The result for FPSLRPSEPFLTPYLLGPDKNLTE [A2P] reads 2.6. To FRSLRPSEPFLTPYLLGPDKNLTE [A2R] belongs 3.08. The result for FQSLRPSEPFLTPYLLGPDKNLTE [A2Q] reads 1.72; that for FFSLRPSEPFLTPYLLGPDKNLTE [A2F], 2.19; that for FDSLRPSEPFLTPYLLGPDKNLTE [A2D], 3.64. Regarding FCSLRPSEPFLTPYLLGPDKNLTE [A2C], the protein stability index is 1.51. With FKSLRPSEPFLTPYLLGPDKNLTE [A2K], the protein stability index was determined as 2.84. The result for FHSLRPSEPFLTPYLLGPDKNLTE [A2H] reads 1.63. In the case of FNSLRPSEPFLTPYLLGPDKNLTE [A2N], the protein stability index worked out at 3.64. The result for FISLRPSEPFLTPYLLGPDKNLTE [A2I] reads 1.66; that for FGSLRPSEPFLTPYLLGPDKNLTE [A2G], 2.74; that for YASLRPSEPFLTPYLLGPDKNLTE [F1Y], 1.5. The result for HASLRPSEPFLTPYLLGPDKNLTE [F1H] reads 3.58. To KASLRPSEPFLTPYLLGPDKNLTE [F1K] belongs 3.79; to RASLRPSEPFLTPYLLGPDKNLTE [F1R], 3.75. Consider PASLRPSEPFLTPYLLGPDKNLTE [F1P], for which the protein stability index was 3.64. For QASLRPSEPFLTPYLLGPDKNLTE [F1Q], the protein stability index is 4.19.

Turning to AASLRPSEPFLTPYLLGPDKNLTE [F1A], the protein stability index turned out to be 4.25. Consider LASLRPSEPFLTPYLLGPDKNLTE [F1L], for which the protein stability index was determined as 2.93. The result for IASLRPSEPFLTPYLLGPDKNLTE [F1I] reads 3.47; that for WASLRPSEPFLTPYLLGPDKNLTE [F1W], 2.77; that for GASLRPSEPFLTPYLLGPDKNLTE [F1G], 4.22.

Turning to TASLRPSEPFLTPYLLGPDKNLTE [F1T], the protein stability index turned out to be 3.44. To EASLRPSEPFLTPYLLGPDKNLTE [F1E] belongs 4.2; to DASLRPSEPFLTPYLLGPDKNLTE [F1D], 4.38; to CASLRPSEPFLTPYLLGPDKNLTE [F1C], 2.8.

Regarding SASLRPSEPFLTPYLLGPDKNLTE [F1S], the protein stability index worked out at 4.12.

NASLRPSEPFLTPYLLGPDKNLTE [F1N]: the protein stability index was found to be 3.81. To VASLRPSEPFLTPYLLGPDKNLTE [F1V] belongs 3.4; to MASLRPSEPFLTPYLLGPDKNLTE [F1M], 3.65.

With FASTRPSEPFLTPYLLGPDKNLTE [L4T], the protein stability index came out at 2.23. On to FASVRPSEPFLTPYLLGPDKNLTE [L4V], for which the protein stability index turned out to be 1.86. The result for FASIRPSEPFLTPYLLGPDKNLTE [L4I] reads 2.44; that for FASHRPSEPFLTPYLLGPDKNLTE [L4H], 1.69; that for FASKRPSEPFLTPYLLGPDKNLTE [L4K], 1.48. The result for FASFRPSEPFLTPYLLGPDKNLTE [L4F] reads 1.93.

In the case of FASQRPSEPFLTPYLLGPDKNLTE [L4Q], the protein stability index stood at 2.15. To FASSRPSEPFLTPYLLGPDKNLTE [L4S] belongs 1.61; to FASCRPSEPFLTPYLLGPDKNLTE [L4C], 1.61.

As to FASWRPSEPFLTPYLLGPDKNLTE [L4W], the protein stability index worked out at 3.5. The result for FASMRPSEPFLTPYLLGPDKNLTE [L4M] reads 1.48; that for FASDRPSEPFLTPYLLGPDKNLTE [L4D], 2.76; that for FASYRPSEPFLTPYLLGPDKNLTE [L4Y], 1.7.

Consider FASARPSEPFLTPYLLGPDKNLTE [L4A], for which the protein stability index was found to be 1.89. To FASRRPSEPFLTPYLLGPDKNLTE [L4R] belongs 2.24.

In the case of FASERPSEPFLTPYLLGPDKNLTE [L4E], the protein stability index was 2.65.

As for FASPRPSEPFLTPYLLGPDKNLTE [L4P], the protein stability index came out at 2.98. To FASNRPSEPFLTPYLLGPDKNLTE [L4N] belongs 1.74; to FASGRPSEPFLTPYLLGPDKNLTE [L4G], 2.93; to FASLNPSEPFLTPYLLGPDKNLTE [R5N], 1.68.

As to FASLPPSEPFLTPYLLGPDKNLTE [R5P], the protein stability index was 2.36. The result for FASLAPSEPFLTPYLLGPDKNLTE [R5A] reads 2.03; that for FASLMPSEPFLTPYLLGPDKNLTE [R5M], 1.94. To FASLQPSEPFLTPYLLGPDKNLTE [R5Q] belongs 2.34; to FASLHPSEPFLTPYLLGPDKNLTE [R5H], 2.17; to FASLVPSEPFLTPYLLGPDKNLTE [R5V], 2.6.

In the case of FASLCPSEPFLTPYLLGPDKNLTE [R5C], the protein stability index was determined as 1.99. FASLIPSEPFLTPYLLGPDKNLTE [R5I]: the protein stability index came to 2.13. With FASLYPSEPFLTPYLLGPDKNLTE [R5Y], the protein stability index is 2.39. The result for FASLDPSEPFLTPYLLGPDKNLTE [R5D] reads 1.73; that for FASLSPSEPFLTPYLLGPDKNLTE [R5S], 2.07. As for FASLKPSEPFLTPYLLGPDKNLTE [R5K], the protein stability index is 1.88. To FASLTPSEPFLTPYLLGPDKNLTE [R5T] belongs 1.98. In the case of FASLEPSEPFLTPYLLGPDKNLTE [R5E], the protein stability index came to 2.58. To FASLLPSEPFLTPYLLGPDKNLTE [R5L] belongs 2.1; to FASLGPSEPFLTPYLLGPDKNLTE [R5G], 1.57; to FASLWPSEPFLTPYLLGPDKNLTE [R5W], 2.43. As to FASLFPSEPFLTPYLLGPDKNLTE [R5F], the protein stability index came to 2.32. To FASLRGSEPFLTPYLLGPDKNLTE [P6G] belongs 1.71; to FASLRASEPFLTPYLLGPDKNLTE [P6A], 1.12; to FASLRESEPFLTPYLLGPDKNLTE [P6E], 1.65. To FASLRDSEPFLTPYLLGPDKNLTE [P6D] belongs 2.17. For the variant FASLRFSEPFLTPYLLGPDKNLTE [P6F], the protein stability index came out at 1.58. To FASLRCSEPFLTPYLLGPDKNLTE [P6C] belongs 1.99; to FAMLRPSEPFLTPYLLGPDKNLTE [S3M], 1.74. To FAHLRPSEPFLTPYLLGPDKNLTE [S3H] belongs 1.87; to FACLRPSEPFLTPYLLGPDKNLTE [S3C], 1.23; to FAWLRPSEPFLTPYLLGPDKNLTE [S3W], 1.54. Consider FARLRPSEPFLTPYLLGPDKNLTE [S3R], for which the protein stability index worked out at 1.71. Regarding FAYLRPSEPFLTPYLLGPDKNLTE [S3Y], the protein stability index is 2.53.

In the case of FALLRPSEPFLTPYLLGPDKNLTE [S3L], the protein stability index worked out at 1.76.

Take FAELRPSEPFLTPYLLGPDKNLTE [S3E]: the protein stability index amounted to 1.45. The result for FAALRPSEPFLTPYLLGPDKNLTE [S3A] reads 1.59; that for FAFLRPSEPFLTPYLLGPDKNLTE [S3F], 1.93; that for FAPLRPSEPFLTPYLLGPDKNLTE [S3P], 2.43.

With FAKLRPSEPFLTPYLLGPDKNLTE [S3K], the protein stability index worked out at 2.78. To FAGLRPSEPFLTPYLLGPDKNLTE [S3G] belongs 1.65; to FATLRPSEPFLTPYLLGPDKNLTE [S3T], 2.83. The result for FADLRPSEPFLTPYLLGPDKNLTE [S3D] reads 3.05; that for FAVLRPSEPFLTPYLLGPDKNLTE [S3V], 2.65; that for FANLRPSEPFLTPYLLGPDKNLTE [S3N], 2.78.

Take FAILRPSEPFLTPYLLGPDKNLTE [S3I]: the protein stability index stood at 1.69. To FAQLRPSEPFLTPYLLGPDKNLTE [S3Q] belongs 2.61.
